Assay results: patent CN114591427A (SHENZHEN LIGHT AND BIOTECHNOLOGY CO LTD; GUANGDONG PEOPLES …, dated 2022)

Molecular target: T1, MPT32蛋白 in protein extracts of clinical samples of tuberculosis patients (结核分枝杆菌 (Mycobacterium tuberculosis), UniProt P9WIR7 40-325)
T1 construct: Native antigen detected by western blot in patient samples; also called 结核分枝杆菌MPT32蛋白; 抗原蛋白
T1 sequence (looked up): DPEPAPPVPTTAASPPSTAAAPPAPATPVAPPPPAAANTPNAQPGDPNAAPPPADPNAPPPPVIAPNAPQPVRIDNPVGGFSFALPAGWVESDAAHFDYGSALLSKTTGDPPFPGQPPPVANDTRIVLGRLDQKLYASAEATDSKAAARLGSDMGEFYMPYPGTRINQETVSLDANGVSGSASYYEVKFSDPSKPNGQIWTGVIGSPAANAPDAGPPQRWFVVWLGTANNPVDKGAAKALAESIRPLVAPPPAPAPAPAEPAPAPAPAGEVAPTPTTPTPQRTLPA
Assay: western blot of protein extracts of clinical samples

B1: 鼠抗MPT32蛋白单克隆抗体 (secreted by hybridoma cell line 13B12, CCTCC NO:C2021305) (antibody, V domains shown)
VH: QVQLQQSGAELVKPGASVKMSCKASGFTFTSYWINWVKQRPGQGLEWIGDLYPGRGITNYNEKFKPKATLTLDTSSSTAYMQLSSLTSEDSAVYYCSTGPYWGQGTILTVSS
VL: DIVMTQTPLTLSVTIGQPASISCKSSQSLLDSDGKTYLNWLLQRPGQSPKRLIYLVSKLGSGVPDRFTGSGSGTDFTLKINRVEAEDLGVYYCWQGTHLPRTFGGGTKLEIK
notes: also called 鼠抗MPT32单克隆抗体; MPT32蛋白抗体
B1: binds.
